Results published in patent US20250215091A1, “Anti-GAL3 Antibodies and Compositions” (Les Laboratoires Servier, priority 2022, published 2025).

Key:
Format in all cases: in vivo, mice
[1] = tested on: genes differentially regulated between HOCI group and control group in whole blood cells; test: HOCI-induced murine fibrosis model: whole blood RNA sequencing; conditions: of 510 genes differentially regulated HOCI vs control; day 42, whole blood
Method: (§1) In a first experiment, control mice (n=12) received a daily intradermal injection of 300 μL of sterile phosphate buffer saline (PBS) for 5 consecutive days per week, for a duration of 42 days. HOCI alone and HOCI with antibody (HOCI-antibody) treated mice (n=12 per group) received a daily intradermal injection of 300 μL of HOCI for 5 consecutive days per week, for a duration of 42 days. Antibody-treated mice also received a subcutaneous injection of 20 mg/kg antibody, starting at day minus one and every 5 days between day 5 and day 40. Each antibody was solubilized in sterile, endotoxin-free PBS before injection. In a second experiment, the same protocol was applied, except that duration of the study was 63 days and antibodies were given every 7 days starting at day minus 1 until day 62.
(§2) Mice that received daily injection of HOCI were also treated by intratracheal instillation of 0.5 mg/kg of TD139 compound (HOCI-TD139), a small molecule Gal3 inhibitor. In a first experiment, the administrations started from day 21 and the compound was given every 3 days until day 39. In a second experiment, the administrations started from day 20 and the compound was given every 3 days until day 62. TD139 was initially dissolved in 100% DMSO then diluted 50-fold in endotoxin-free PBS before administration.
In the first experiment, global gene expression was examined at day 42 in whole blood cells by RNA sequencing.
Whole blood was collected in RNA protect tubes (Qiagen) and were processed for RNA extraction using the RNeasy Protect Animal blood kit with the optional on-column DNAse I digestion. Total RNA samples were quantified on Nanodrop 2000 (ThermoFisher Scientific™) and analyzed on Bioanalyzer (Agilent) using RNA 6000 Nano chips to determine RNA quality (RIN). Total RNA matching the QC criteria were included in the study. Purified RNA samples were used as input for the TruSeq Strand-specific RNA-seq (poly A selection and globin depletion) according to manufacturer's protocol (Illumina). […]
Raw reads were processed using the in-house RNAExp Expression pipeline 2.1 and the quality was assessed using FastQC tools. Then, reads were trimmed for adaptors using Cutadapt and trimmed reads were aligned to mouse mm39 reference genome using the STAR aligner. Aligned data were evaluated for quality using Samtools and Picard tools. Then, aligned reads per gene were quantified using FeatureCount. […] Read count were normalized by the variance stabilizing transformation vst function from DESeq2 R package.
55,416 genes were detected in the data. […] Genes differentially expressed between groups were determined using a linear model (ImFit function from limma R package) on vst transformation gene expression dataset. […]

plasma IL-5 = test: HOCI-induced murine fibrosis model: plasma IL-5 (MSD); conditions: first experiment, day 42; vs HOCI group; FIG. 9
Method: as §1, §2
(§3) In the first experiment, a mixed effect model with repeated measurements was performed on Control group, HOCI treated group, HOCI-antibody- and HOCI-TD139-treated groups. The impact of HOCI administration on plasma IL-6 and IL-5 levels was evaluated compared to the control group. The impact of antibody and TD139 treatments was compared to the HOCI group (FIG. 9). IL-6 and IL-5 were quantified by using the MSD technology from Mesoscale.

plasma Gal3 = test: HOCI-induced murine fibrosis model: plasma Gal3 (ELISA); conditions: first experiment, day 42; FIG. 10
Method: as §1, §2
In the first experiment, the plasma levels of Gal3 were measured at day minus 1 (before antibody administration) and at termination day (day 42) using a mouse Galectin-3 DuoSet ELISA kit (R&D Systems, DY1197) according to the manufacturer's instructions. Plasma samples were diluted 1:200 in order to fit with the dynamic range of the assay.

[2] = tested on: murine model of HOCI-induced fibrosis; test: HOCI-induced murine fibrosis model: skin thickness
Method: as §1, §2
The evolution of skin thickness was monitored by using an external caliper, every seven days until sacrifice.

[3] = tested on: murine model of HOCI-induced fibrosis; test: HOCI-induced murine fibrosis model: skin and lung collagen (Picrosirius red); conditions: first experiment
Method: as §1, §2
At the day of study termination of the first experiment (day 42), skin and lung samples were taken, formalin-fixed and processed to individual paraffin wax blocks. Sections of skin and lung were cut from the blocks and, after rehydration, stained with Picrosirius Red coloration according to the manufacturer's protocol. Subsequently, each slide was examined and remotely analyzed employing the web-based Image J software

plasma IL-6 = test: HOCI-induced murine fibrosis model: plasma IL-6 (MSD); conditions: first experiment, day 42; vs HOCI group; FIG. 9
Method: as §1, §2, §3

B1: E07: anti-Gal3 monoclonal antibody, IgG1 format; VH SEQ ID NO 42, VL SEQ ID NO 43 (antibody, V domains shown)
VH: EVQLVESGGSLVKPGGSLRLSCAASGFTFSNYNMNWVRQAPGKGLEWISNIYGSSRYIYYADFVKGRFTISRDNAKNSLYLQMNSLRAEDTAVYYCVRSYYGGMDVWGRGTLVTVSS
VL: QSVLTQPASVSGSPGQSITISCAGTSSDVGGYYSVSWYQQHPGKAPKLMIYYDSNRPSGVSNRFSGSKSGNTASLTISGLQAEDEADYYCSSYTGYSTRVFGGGTKLEIK
number of HOCI-dysregulated genes counteracted by treatment [1]: 445 genes
percentage of HOCI-dysregulated genes counteracted by treatment [1]: 87.2%
plasma IL-5 levels (plasma IL-5): decreased significantly
plasma Gal3 levels (plasma Gal3): restored the plasma Gal3 levels to values similar to those of the control group
HOCI-induced increase in skin thickness ([2]; first experiment, 42 days, antibody 20 mg/kg s.c., TD139 0.5 mg/kg intratracheal, vs HOCI group, FIG. 7A): significantly reduced
day from which reduction of skin thickness was significant ([2]; first experiment, sustained effect until day 42): 21 days
HOCI-induced increase in skin thickness ([2]; second experiment, 63 days, antibody 20 mg/kg s.c. every 7 days, sustained effect until day 63, FIG. 7B): significantly reduced
day from which reduction of skin thickness was significant ([2]; second experiment, sustained effect until day 63): 7 days
lung collagen levels ([3]; day 42, FIG. 8A): restored lung collagen levels to those of control mice, reaching statistical significance
skin collagen levels ([3]; day 42, vs HOCI group, FIG. 8B): non significant downward trend
plasma IL-6 levels (plasma IL-6): significantly decreased the plasma IL-6 levels to values similar to those of control mice
